The record followed here is patent US20240400715A1 (VIBRANT PHARMA, published 2024).

As usually defined, the EC50 is the concentration at which the effect is half-maximal. Low readings indicate an effect from little substance, high ones a need for much substance. Usually Kd stands for the concentration at which binding is half-saturated. A low value points to tighter binding. In general, koff refers to the rate constant with which the complex falls apart. Low readings indicate a long-lived complex, high ones a short-lived complex. What is called kon is the rate constant with which the complex forms.

In experiment [1] the target is T1, human CD3 on Jurkat cells (human, UniProt P07766 23-207; P04234 22-171; P09693 23-182).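 Also: flow cytometric binding of bispecific antibodies to Jurkat T cells, threefold serial dilutions incubated half an hour in the cold, EC50 taken from the fitted binding curve.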
T1 construct: whole, on cells; CD3 complex as on Jurkat (Clone E6-1) cells; also called CD3 expressing cells (Jurkat)
In words: FACS, Jurkat cells. (Flow cytometry measures light scatter and fluorescence of single cells or particles in a stream.)
Description: The binding of the bispecific antibodies was tested on the CA expressing human lung adenocarcinoma cell line (H1573) and the CD3 expressing immortalized T lymphocyte line (Jurkat). The steps are as follows: the cells were harvested, counted, and resuspended in FACS buffer (PBS containing 0.1% BSA) at 2×10⁶ cells/ml. 100 μl of cell suspension was incubated in a V-bottom 96-well plate at 4° C. with 3-fold serial dilutions of bispecific antibodies (20 μg/ml-0.009 μg/ml) for 30 minutes; washed twice with pre-cooled FACS buffer. […] GraphPadPrism was used to obtain the binding curve.

Experiment [2] deals with T2, human CD3ε/δ (ACRO systems, CDD-H52W1) (human, UniProt P07766 23-126; P04234 22-105).
T2 construct: Bought protein; also called human CD3ϵ/CD3δ; human CD3 epsilon/delta antigen
In words: BLI, antibody captured, antigen in solution. (In BLI a coated tip is dipped into the sample, and binding shifts an interference pattern.)
Description: The bispecific antibodies were diluted to 5 ag/ml, and 1.5 nm protein was coupled to the surface of the AHIC sensor chip through 0.02% PBST.

“And” between values parts separate entries of the source, which are not always exact repeats. Equal entries are not always repeated.
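For Kd in this document: bispecific antibodies captured on AHIC biosensors to a 1.5 nm loading signal, in PBST with 0.02% detergent.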
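For koff in this document: bispecific antibodies captured on AHIC biosensors to a 1.5 nm loading signal, in PBST with 0.02% detergent.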
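For kon in this document: bispecific antibodies captured on AHIC biosensors to a 1.5 nm loading signal, in PBST with 0.02% detergent.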

B1: 306 (TA7), configuration of FIG. 1W (bispecific antibody, IgG4)
heavy: EVQLVQSGAEVKKPGASVKVSCKASGFTFTSYYIHWVRQAPGQGLEWIGWIYPENDNTKYNEKFKDRVTITADTSTSTAYLELSSLRSEDTAVYYCARDGYSRYYFDYWGQGTLVTVSSASTKGPSVFPLAPCSRSTSESTAALGCLVKDYFPEPVTVSWNSGALTSGVHTFPAVLQSSGLYSLSSVVTVPSSSLGTKTYTCNVDHKPSNTKVDKRVESKYGPPCPPCPAPEAAGGPSVFLFPPKPKDTLMISRTPEVTCVVVDVSQEDPEVQFNWYVDGVEVHNAKTKPREEQFNSTYRVVSVLTVLHQDWLNGKEYKCKVSNKGLPSSIEKTISKAKGQPREPQVYTLPPCQEEMTKNQVSLWCLVKGFYPSDIAVEWESNGQPENNYKTTPPVLDSDGSFFLYSRLTVDKSRWQEGNVFSCSVMHEALHNHYTQKSLSLSL
chain: EVQLVESGGGFVQAGESLTLSCTSSTLTFTPYRMAWYRQAPGKQRDLVADISSGDGRTTNYADFAKGRFTISRDNIKNTVFLRMTNLKPEDTAVYYCNTFVSFVGIARSWGQGTQVTVSSESKYGPPCPPCPAPEAAGGPSVFLFPPKPKDTLMISRTPEVTCVVVDVSQEDPEVQFNWYVDGVEVHNAKTKPREEQFNSTYRVVSVLTVLHQDWLNGKEYKCKVSNKGLPSSIEKTISKAKGQPREPQVCTLPPSQEEMTKNQVSLSCAVKGFYPSDIAVEWESNGQPENNYKTTPPVLDSDGSFFLVSRLTVDKSRWQEGNVFSCSVMHEALHNRFTQKSLSLSL
light: DIVMTQSPDSLAVSLGERATINCKSSQSLLNSRTRKNYLAWYQQKPGQSPKLLIYWTSTRKSGVPDRFSGSGSGTDFTLTISSLQAEDVAVYYCKQSFILRTFGQGTKVEIK
notes: chains put together from VH/VL, CH1, knob-Fc; IgG4, kappa; also called CEA-CD3 bispecific antibody 306; not shown: kappa light chain constant domain (CL)
Turning to B1, the EC50 in experiment [1] is 0.0129 µg/mL and 0.1 nM. For the same molecule, in experiment [2], the Kd was found to be 1.4 nM, the koff turned out to be 0.000419 s⁻¹ and the on-rate constant (kon) came out at 278000 M⁻¹ s⁻¹.

B2: Knob+CEA-Fab-Hole (206) (bispecific antibody, human IgG4 S228P, kappa, F234A L235A)
chain: ESKYGPPCPPCPAPEAAGGPSVFLFPPKPKDTLMISRTPEVTCVVVDVSQEDPEVQFNWYVDGVEVHNAKTKPREEQFNSTYRVVSVLTVLHQDWLNGKEYKCKVSNKGLPSSIEKTISKAKGQPREPQVYTLPPCQEEMTKNQVSLWCLVKGFYPSDIAVEWESNGQPENNYKTTPPVLDSDGSFFLYSRLTVDKSRWQEGNVFSCSVMHEALHNHYTQKSLSLSL
heavy: EVQLVESGGGFVQAGESLTLSCTSSTLTFTPYRMAWYRQAPGKQRDLVADISSGDGRTTNYADFAKGRFTISRDNIKNTVFLRMTNLKPEDTAVYYCNTFVSFVGIARSWGQGTQVTVSSGGGGSGGGGSEVKLLESGGGLVQPKGSLKLSCAASGFTFNTYAMNWVRQAPGKGLEWVARIRSKYNNYATYYADSVKDRFTISRDDSQSILYLQMNNLKTEDTAMYYCVRHGNFGNSYVSWFAYWGQGTLVTVSSASTKGPSVFPLAPCSRSTSESTAALGCLVKDYFPEPVTVSWNSGALTSGVHTFPAVLQSSGLYSLSSVVTVPSSSLGTKTYTCNVDHKPSNTKVDKRVESKYGPPCPPCPAPEAAGGPSVFLFPPKPKDTLMISRTPEVTCVVVDVSQEDPEVQFNWYVDGVEVHNAKTKPREEQFNSTYRVVSVLTVLHQDWLNGKEYKCKVSNKGLPSSIEKTISKAKGQPREPQVCTLPPSQEEMTKNQVSLSCAVKGFYPSDIAVEWESNGQPENNYKTTPPVLDSDGSFFLVSRLTVDKSRWQEGNVFSCSVMHEALHNRFTQKSLSLSL
light: QAVVTQESALTTSPGETVTLTCRSSTGAVTTSNYANWVQEKPDHLFTGLIGGTNKRAPGVPARFSGSLIGDKAALTITGAQTEDEAIYFCALWYSNLWVFGGGTKVEIKRTVAAPSVFIFPPSDEQLKSGTASVVCLLNNFYPREAKVQWKVDNALQSGNSQESVTEQDSKDSTYSLSSTLTLSKADYEKHKVYACEVTHQGLSSPVTKSFNRGEC
notes: VHH linked to the VH of the Fab; human IgG4 knob-into-hole Fc
In the case of B2, the EC50 in experiment [1] is 8.29 nM and 1.08 µg/mL. In experiment [2], this molecule returned a Kd of 3.08 nM, a koff of 0.000552 s⁻¹ and a kon of 180000 M⁻¹ s⁻¹.

B3: CEA-Knob-Fab-+Hole (107) (bispecific antibody, human IgG4 S228P, kappa, F234A L235A)
heavy: EVQLVESGGGFVQAGESLTLSCTSSTLTFTPYRMAWYRQAPGKQRDLVADISSGDGRTTNYADFAKGRFTISRDNIKNTVFLRMTNLKPEDTAVYYCNTFVSFVGIARSWGQGTQVTVSSESKYGPPCPPCPAPEAAGGPSVFLFPPKPKDTLMISRTPEVTCVVVDVSQEDPEVQFNWYVDGVEVHNAKTKPREEQFNSTYRVVSVLTVLHQDWLNGKEYKCKVSNKGLPSSIEKTISKAKGQPREPQVYTLPPCQEEMTKNQVSLWCLVKGFYPSDIAVEWESNGQPENNYKTTPPVLDSDGSFFLYSRLTVDKSRWQEGNVFSCSVMHEALHNHYTQKSLSLSLGGGGSGGGGEVKLLESGGGLVQPKGSLKLSCAASGFTFNTYAMNWVRQAPGKGLEWVARIRSKYNNYATYYADSVKDRFTISRDDSQSILYLQMNNLKTEDTAMYYCVRHGNFGNSYVSWFAYWGQGTLVTVSSASTKGPSVFPLAPCSRSTSESTAALGCLVKDYFPEPVTVSWNSGALTSGVHTFPAVLQSSGLYSLSSVVTVPSSSLGTKTYTCNVDHKPSNTKVDKRV
chain: ESKYGPPCPPCPAPEAAGGPSVFLFPPKPKDTLMISRTPEVTCVVVDVSQEDPEVQFNWYVDGVEVHNAKTKPREEQFNSTYRVVSVLTVLHQDWLNGKEYKCKVSNKGLPSSIEKTISKAKGQPREPQVCTLPPSQEEMTKNQVSLSCAVKGFYPSDIAVEWESNGQPENNYKTTPPVLDSDGSFFLVSRLTVDKSRWQEGNVFSCSVMHEALHNRFTQKSLSLSL
light: QAVVTQESALTTSPGETVTLTCRSSTGAVTTSNYANWVQEKPDHLFTGLIGGTNKRAPGVPARFSGSLIGDKAALTITGAQTEDEAIYFCALWYSNLWVFGGGTKVEIKRTVAAPSVFIFPPSDEQLKSGTASVVCLLNNFYPREAKVQWKVDNALQSGNSQESVTEQDSKDSTYSLSSTLTLSKADYEKHKVYACEVTHQGLSSPVTKSFNRGEC
notes: Anti-CD3 TA1 Fab + anti-CEA VHH C17 on human IgG4 knob-into-hole Fc
Consider B3, for which, in experiment [1], the concentration for a half-maximal effect (EC50) was 2.8 µg/mL and 21.6 nM. In experiment [2], this molecule showed a Kd of 2.23 nM, a koff of 0.000803 s⁻¹ and a kon of 360000 M⁻¹ s⁻¹.

B4: Fab (Heavy)-Knob+Fab (Light)-Hole-CEA (208) (bispecific antibody, human IgG4 S228P, kappa, F234A L235A)
heavy: EVKLLESGGGLVQPKGSLKLSCAASGFTFNTYAMNWVRQAPGKGLEWVARIRSKYNNYATYYADSVKDRFTISRDDSQSILYLQMNNLKTEDTAMYYCVRHGNFGNSYVSWFAYWGQGTLVTVSSASTKGPSVFPLAPCSRSTSESTAALGCLVKDYFPEPVTVSWNSGALTSGVHTFPAVLQSSGLYSLSSVVTVPSSSLGTKTYTCNVDHKPSNTKVDKRVESKYGPPCPPCPAPEAAGGPSVFLFPPKPKDTLMISRTPEVTCVVVDVSQEDPEVQFNWYVDGVEVHNAKTKPREEQFNSTYRVVSVLTVLHQDWLNGKEYKCKVSNKGLPSSIEKTISKAKGQPREPQVYTLPPCQEEMTKNQVSLWCLVKGFYPSDIAVEWESNGQPENNYKTTPPVLDSDGSFFLYSRLTVDKSRWQEGNVFSCSVMHEALHNHYTQKSLSLSL
chain: QAVVTQESALTTSPGETVTLTCRSSTGAVTTSNYANWVQEKPDHLFTGLIGGTNKRAPGVPARFSGSLIGDKAALTITGAQTEDEAIYFCALWYSNLWVFGGGTKVEIKRTVAAPSVFIFPPSDEQLKSGTASVVCLLNNFYPREAKVQWKVDNALQSGNSQESVTEQDSKDSTYSLSSTLTLSKADYEKHKVYACEVTHQGLSSPVTKSFNRGECESKYGPPCPPCPAPEAAGGPSVFLFPPKPKDTLMISRTPEVTCVVVDVSQEDPEVQFNWYVDGVEVHNAKTKPREEQFNSTYRVVSVLTVLHQDWLNGKEYKCKVSNKGLPSSIEKTISKAKGQPREPQVCTLPPSQEEMTKNQVSLSCAVKGFYPSDIAVEWESNGQPENNYKTTPPVLDSDGSFFLVSRLTVDKSRWQEGNVFSCSVMHEALHNRFTQKSLSLSLGGGGSGGGGSEVQLVESGGGFVQAGESLTLSCTSSTLTFTPYRMAWYRQAPGKQRDLVADISSGDGRTTNYADFAKGRFTISRDNIKNTVFLRMTNLKPEDTAVYYCNTFVSFVGIARSWGQGTQVTVSS
notes: Two-chain format; human IgG4 knob-into-hole Fc
In the case of B4, the EC50 in experiment [1] was 0.917 µg/mL and 7.06 nM. In experiment [2], the dissociation constant (Kd) worked out at 2.82 nM, the koff came to 0.000642 s⁻¹ and the on-rate (kon) is 228000 M⁻¹ s⁻¹.
